In article PMC2685089:

How the values were obtained:
Test in all cases: EMSA
[1] = biological target: T1, Up1 (UniProt P09651-2 2-196)
[2] = biological target: hnRNP A1 (A1) (UniProt P09651-2 2-320)
[3] = biological target: T1, Up1; remark: listed apart in the source

AGGGCGGTGTGGGAAGAGGGAAGAGGGGGAGG (structured_DNA) [32R]
Kd [1]: ~50 nM

B1: dsNHE (32R:32Y) (dsDNA)
DNA 1: AGGGCGGTGTGGGAAGAGGGAAGAGGGGGAGG
DNA 2: CCTCCCCCTCTTCCCTCTTCCCACACCGCCCT
binding result [2]: no binding | binding result [3]: no binding

AGGGAGGGCGCTGGGAGGAGGG (structured_DNA) [CKIT]
binding result [3]: binds
